Experimental data: patent publication US20210063414A1, “METHODS FOR PREVENTING AND/OR TREATING BONE LOSS CONDITIONS BY MODULATING IRISIN” (Dana-Farber Cancer Institute, Inc., priority 2018, published 2021)

Target: T1, MLO-Y4 cell surface proteins (Mus musculus, UniProt O88492)
T1 construct: endogenous in cells; host or cells: MLO-Y4
T1 sequence (O88492 1-1403): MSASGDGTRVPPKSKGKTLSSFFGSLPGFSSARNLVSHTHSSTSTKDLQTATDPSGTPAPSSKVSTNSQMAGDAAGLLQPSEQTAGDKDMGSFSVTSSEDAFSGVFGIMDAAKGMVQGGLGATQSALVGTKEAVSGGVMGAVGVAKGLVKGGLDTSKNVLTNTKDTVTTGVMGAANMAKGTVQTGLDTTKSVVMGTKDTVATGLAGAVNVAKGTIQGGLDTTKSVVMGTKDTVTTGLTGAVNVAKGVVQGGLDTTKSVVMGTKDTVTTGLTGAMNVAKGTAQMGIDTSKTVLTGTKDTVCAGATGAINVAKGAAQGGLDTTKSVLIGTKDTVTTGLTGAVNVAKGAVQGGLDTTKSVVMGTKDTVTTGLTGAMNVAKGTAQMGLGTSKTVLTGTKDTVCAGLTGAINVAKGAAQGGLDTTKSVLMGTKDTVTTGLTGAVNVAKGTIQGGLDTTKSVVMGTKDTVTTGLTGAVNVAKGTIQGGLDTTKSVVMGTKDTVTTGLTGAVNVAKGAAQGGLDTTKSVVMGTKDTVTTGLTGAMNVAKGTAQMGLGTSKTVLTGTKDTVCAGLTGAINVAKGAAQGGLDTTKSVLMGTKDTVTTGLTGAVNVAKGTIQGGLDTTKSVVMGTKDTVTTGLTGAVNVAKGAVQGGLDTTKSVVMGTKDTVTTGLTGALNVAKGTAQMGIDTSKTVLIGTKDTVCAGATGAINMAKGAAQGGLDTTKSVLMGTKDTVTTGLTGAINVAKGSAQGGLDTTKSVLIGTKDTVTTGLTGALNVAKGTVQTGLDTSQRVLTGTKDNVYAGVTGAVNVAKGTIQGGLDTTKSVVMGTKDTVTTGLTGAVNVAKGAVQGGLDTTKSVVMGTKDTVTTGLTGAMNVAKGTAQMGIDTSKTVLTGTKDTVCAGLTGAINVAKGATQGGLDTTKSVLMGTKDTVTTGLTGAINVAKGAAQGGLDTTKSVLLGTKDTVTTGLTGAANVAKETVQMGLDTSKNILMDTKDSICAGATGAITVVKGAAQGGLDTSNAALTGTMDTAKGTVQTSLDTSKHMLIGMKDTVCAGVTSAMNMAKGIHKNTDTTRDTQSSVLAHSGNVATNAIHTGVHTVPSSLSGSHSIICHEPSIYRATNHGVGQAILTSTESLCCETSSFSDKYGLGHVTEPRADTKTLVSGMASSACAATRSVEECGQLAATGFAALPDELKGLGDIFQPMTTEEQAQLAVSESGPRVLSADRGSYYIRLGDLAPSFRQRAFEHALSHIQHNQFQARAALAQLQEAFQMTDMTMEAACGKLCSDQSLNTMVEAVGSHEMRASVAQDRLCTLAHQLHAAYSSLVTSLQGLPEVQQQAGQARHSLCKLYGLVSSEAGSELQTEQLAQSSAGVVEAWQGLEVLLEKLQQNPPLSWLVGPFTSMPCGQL
Assay: Crosslinking/co-immunoprecipitation/mass spectrometry (TMT quantitative proteomics) to identify irisin receptors
Format: binding
Conditions: co-precipitated protein Plin4 (PLIN4_MOUSE)
How it was run: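 Mouse MLO-Y4 cells were switched to serum-free FreeStyle medium for 4 h, chilled, then exposed to 10 nM His-tagged irisin (or adipsin as control) for 20 min. Cells were crosslinked with 1.5 mM DTSSP (30 min, ice), and bound proteins were pulled down on Ni-NTA and eluted with 250 mM imidazole. Eluates were separated by SDS-PAGE, trypsin-digested in gel, TMT 6-plex labelled and quantified by MS3-based LC-MS/MS on an Orbitrap Fusion Lumos.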

- TMT signal-to-noise ratio: 111.989
Substance: adipsin
